Starred links: 1 amine or outer side, 2 acyl side, 3 side chain; linkers in the order of their positions; H or OH if unused. Non-standard residues stand in square brackets, D forms with d. Primed or numbered codes have the meaning given here. *: point of attachment. AC4Abu = α-carboxy-4-aminobutyric acid, O=C(C(CCN[*:1])C(=O)[*:3])[*:2]; dBip = N[C@H](Cc1ccc(-c2ccccc2)cc1)C(=O)O; Oic = O=C(O)[C@@H]1C[C@@H]2CCCC[C@@H]2N1; Phe(4-Cl) = N[C@@H](Cc1ccc(Cl)cc1)C(=O)O; Phe(4-I) = N[C@@H](Cc1ccc(I)cc1)C(=O)O; γGlu = O=C(O)[C@H](CCC(=O)[*:2])N[*:1]; d(β3hF) = N[C@@H](CC(=O)O)Cc1ccccc1; NMeR = CN[C@@H](CCCNC(=N)N)C(=O)O; Palmitoyl = CCCCCCCCCCCCCCCC(=O)*; Tridecanoyl = CCCCCCCCCCCCC(=O)*; hArg = N=C(N)NCCCC[C@H](N)C(=O)O; β3hF = N[C@H](CC(=O)O)Cc1ccccc1; Cha = N[C@@H](CC1CCCCC1)C(=O)O; NMeL = CN[C@@H](CC(C)C)C(=O)O; αMeP = C[C@@]1(C(=O)O)CCCN1; AC4Abu″ = not defined here; β3hP = O=C(O)C[C@@H]1CCCN1; αMeS = C[C@](N)(CO)C(=O)O; Nle = CCCC[C@H](N)C(=O)O; AMEF = not defined here; Deg = CCC(N)(CC)C(=O)O; AEEA = NCCOCCOCC(=O)O
B1: SEQ ID NO: 79 (peptide)
peptide: Ac-[hArg][dR]Q[hArg]PE[NMeL]SHKG[Oic][Phe(4-I)]P[dBip]-OH
SMILES: CC(=O)N[C@@H](CCCCNC(=N)N)C(=O)N[C@H](CCCNC(=N)N)C(=O)N[C@@H](CCC(N)=O)C(=O)N[C@@H](CCCCNC(=N)N)C(=O)N1CCC[C@H]1C(=O)N[C@@H](CCC(=O)O)C(=O)N(C)[C@@H](CC(C)C)C(=O)N[C@@H](CO)C(=O)N[C@@H](Cc1c[nH]cn1)C(=O)N[C@@H](CCCCN)C(=O)NCC(=O)N1[C@H](C(=O)N[C@@H](Cc2ccc(I)cc2)C(=O)N2CCC[C@H]2C(=O)N[C@H](Cc2ccc(-c3ccccc3)cc2)C(=O)O)C[C@@H]2CCCC[C@@H]21
B2: SEQ ID NO: 81 (peptide)
peptide: Ac-[hArg][dR]Q[hArg]P[dR][NMeL]EHKG[Oic][Phe(4-I)]P[dBip]-OH
SMILES: CC(=O)N[C@@H](CCCCNC(=N)N)C(=O)N[C@H](CCCNC(=N)N)C(=O)N[C@@H](CCC(N)=O)C(=O)N[C@@H](CCCCNC(=N)N)C(=O)N1CCC[C@H]1C(=O)N[C@H](CCCNC(=N)N)C(=O)N(C)[C@@H](CC(C)C)C(=O)N[C@@H](CCC(=O)O)C(=O)N[C@@H](Cc1c[nH]cn1)C(=O)N[C@@H](CCCCN)C(=O)NCC(=O)N1[C@H](C(=O)N[C@@H](Cc2ccc(I)cc2)C(=O)N2CCC[C@H]2C(=O)N[C@H](Cc2ccc(-c3ccccc3)cc2)C(=O)O)C[C@@H]2CCCC[C@@H]21
B3: SEQ ID NO: 82 (peptide)
peptide: Ac-[hArg][dR]Q[hArg]P[dR][NMeL]SEKG[Oic][Phe(4-I)]P[dBip]-OH
SMILES: CC(=O)N[C@@H](CCCCNC(=N)N)C(=O)N[C@H](CCCNC(=N)N)C(=O)N[C@@H](CCC(N)=O)C(=O)N[C@@H](CCCCNC(=N)N)C(=O)N1CCC[C@H]1C(=O)N[C@H](CCCNC(=N)N)C(=O)N(C)[C@@H](CC(C)C)C(=O)N[C@@H](CO)C(=O)N[C@@H](CCC(=O)O)C(=O)N[C@@H](CCCCN)C(=O)NCC(=O)N1[C@H](C(=O)N[C@@H](Cc2ccc(I)cc2)C(=O)N2CCC[C@H]2C(=O)N[C@H](Cc2ccc(-c3ccccc3)cc2)C(=O)O)C[C@@H]2CCCC[C@@H]21
B4: SEQ ID NO: 83 (peptide)
peptide: Ac-[hArg][dR]Q[hArg]P[dR][NMeL]SHEG[Oic][Phe(4-I)]P[dBip]-OH
SMILES: CC(=O)N[C@@H](CCCCNC(=N)N)C(=O)N[C@H](CCCNC(=N)N)C(=O)N[C@@H](CCC(N)=O)C(=O)N[C@@H](CCCCNC(=N)N)C(=O)N1CCC[C@H]1C(=O)N[C@H](CCCNC(=N)N)C(=O)N(C)[C@@H](CC(C)C)C(=O)N[C@@H](CO)C(=O)N[C@@H](Cc1c[nH]cn1)C(=O)N[C@@H](CCC(=O)O)C(=O)NCC(=O)N1[C@H](C(=O)N[C@@H](Cc2ccc(I)cc2)C(=O)N2CCC[C@H]2C(=O)N[C@H](Cc2ccc(-c3ccccc3)cc2)C(=O)O)C[C@@H]2CCCC[C@@H]21
B5: Apelin polypeptide SEQ ID NO: 551 (peptide)
peptide: Tridecanoyl-[γGlu][AEEA][AEEA][dQ]RP[NMeR][Cha]SHKG[αMeP][Nle][Phe(4-Cl)]-OH
SMILES: CCCCCCCCCCCCC(=O)N[C@@H](CCC(=O)NCCOCCOCC(=O)NCCOCCOCC(=O)N[C@H](CCC(N)=O)C(=O)N[C@@H](CCCNC(=N)N)C(=O)N1CCC[C@H]1C(=O)N(C)[C@@H](CCCNC(=N)N)C(=O)N[C@@H](CC1CCCCC1)C(=O)N[C@@H](CO)C(=O)N[C@@H](Cc1c[nH]cn1)C(=O)N[C@@H](CCCCN)C(=O)NCC(=O)N1CCC[C@@]1(C)C(=O)N[C@@H](CCCC)C(=O)N[C@@H](Cc1ccc(Cl)cc1)C(=O)O)C(=O)O
B6: Apelin polypeptide SEQ ID NO: 417 (peptide)
peptide: Tridecanoyl-[AC4Abu][AEEA][AEEA]QRP[NMeR][Cha]SHKG[β3hP][Nle]P[Phe(4-Cl)]-OH
SMILES: CCCCCCCCCCCCC(=O)NCCC(C(=O)O)C(=O)NCCOCCOCC(=O)NCCOCCOCC(=O)N[C@@H](CCC(N)=O)C(=O)N[C@@H](CCCNC(=N)N)C(=O)N1CCC[C@H]1C(=O)N(C)[C@@H](CCCNC(=N)N)C(=O)N[C@@H](CC1CCCCC1)C(=O)N[C@@H](CO)C(=O)N[C@@H](Cc1c[nH]cn1)C(=O)N[C@@H](CCCCN)C(=O)NCC(=O)N1CCC[C@H]1CC(=O)N[C@@H](CCCC)C(=O)N1CCC[C@H]1C(=O)N[C@@H](Cc1ccc(Cl)cc1)C(=O)O
B7: Apelin polypeptide SEQ ID NO: 415 (peptide)
peptide: Tridecanoyl-[AC4Abu][AEEA][AEEA]QRP[NMeR][Cha]SHKG[Deg][Nle]P[Phe(4-Cl)]-OH
SMILES: CCCCCCCCCCCCC(=O)NCCC(C(=O)O)C(=O)NCCOCCOCC(=O)NCCOCCOCC(=O)N[C@@H](CCC(N)=O)C(=O)N[C@@H](CCCNC(=N)N)C(=O)N1CCC[C@H]1C(=O)N(C)[C@@H](CCCNC(=N)N)C(=O)N[C@@H](CC1CCCCC1)C(=O)N[C@@H](CO)C(=O)N[C@@H](Cc1c[nH]cn1)C(=O)N[C@@H](CCCCN)C(=O)NCC(=O)NC(CC)(CC)C(=O)N[C@@H](CCCC)C(=O)N1CCC[C@H]1C(=O)N[C@@H](Cc1ccc(Cl)cc1)C(=O)O
B8: Apelin polypeptide SEQ ID NO: 377 (peptide)
peptide: Tridecanoyl-[γGlu][AEEA][AEEA][dQ]RP[NMeR][Cha]SHKG[Oic][Nle]P[Phe(4-Cl)]-OH
SMILES: CCCCCCCCCCCCC(=O)N[C@@H](CCC(=O)NCCOCCOCC(=O)NCCOCCOCC(=O)N[C@H](CCC(N)=O)C(=O)N[C@@H](CCCNC(=N)N)C(=O)N1CCC[C@H]1C(=O)N(C)[C@@H](CCCNC(=N)N)C(=O)N[C@@H](CC1CCCCC1)C(=O)N[C@@H](CO)C(=O)N[C@@H](Cc1c[nH]cn1)C(=O)N[C@@H](CCCCN)C(=O)NCC(=O)N1[C@H](C(=O)N[C@@H](CCCC)C(=O)N2CCC[C@H]2C(=O)N[C@@H](Cc2ccc(Cl)cc2)C(=O)O)C[C@@H]2CCCC[C@@H]21)C(=O)O
B9: Apelin polypeptide SEQ ID NO: 379 (peptide)
peptide: Tridecanoyl-[γGlu][AEEA][AEEA]QRP[NMeR][Cha]SHKG[Oic][Nle]P[β3hF]-OH
SMILES: CCCCCCCCCCCCC(=O)N[C@@H](CCC(=O)NCCOCCOCC(=O)NCCOCCOCC(=O)N[C@@H](CCC(N)=O)C(=O)N[C@@H](CCCNC(=N)N)C(=O)N1CCC[C@H]1C(=O)N(C)[C@@H](CCCNC(=N)N)C(=O)N[C@@H](CC1CCCCC1)C(=O)N[C@@H](CO)C(=O)N[C@@H](Cc1c[nH]cn1)C(=O)N[C@@H](CCCCN)C(=O)NCC(=O)N1[C@H](C(=O)N[C@@H](CCCC)C(=O)N2CCC[C@H]2C(=O)N[C@H](CC(=O)O)Cc2ccccc2)C[C@@H]2CCCC[C@@H]21)C(=O)O

molecular target: T1, human APJ receptor (human, UniProt P35414 1-380); assay: cell-based or functional assay
T1 sequence (looked up): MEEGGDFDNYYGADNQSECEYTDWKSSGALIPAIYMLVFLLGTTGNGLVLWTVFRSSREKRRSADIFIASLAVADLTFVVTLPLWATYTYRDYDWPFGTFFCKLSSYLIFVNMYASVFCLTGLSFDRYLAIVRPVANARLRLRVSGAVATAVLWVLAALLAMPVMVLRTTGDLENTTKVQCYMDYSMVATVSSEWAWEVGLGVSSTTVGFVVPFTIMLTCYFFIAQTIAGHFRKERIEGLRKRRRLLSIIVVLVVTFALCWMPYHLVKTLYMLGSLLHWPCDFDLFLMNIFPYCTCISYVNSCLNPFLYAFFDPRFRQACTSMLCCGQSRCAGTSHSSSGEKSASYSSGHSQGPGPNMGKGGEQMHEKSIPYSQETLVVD

Point of comparison: B2, “EC50 Human APJ Receptor” value 83.8 nM. Against it:
- XXXQRPRLSHKGPXPF ({Acetyl-NH}[AC4Abu][Aeea][Aeea]QRP[NMeArg]LSHKGP[Nle]P[4-Cl-F]{COOH}) [SEQ ID NO: 88] — 380-fold lower, 0.22 nM
- Ac-[hArg]EQ[hArg]P[dR][NMeL]SHKG[Oic][Phe(4-I)]P[dBip]-OH [SEQ ID NO: 76] — 46-fold lower, 1.84 nM
- Ac-[hArg]Q[hArg]P[NMeR][Cha]SHKG[Oic][Nle]P[Phe(4-Cl)]-OH [SEQ ID NO: 60] — 370-fold lower, 0.224 nM
- B1 — 120-fold lower, 0.678 nM
- B3 — 3.6-fold lower, 23.2 nM
- B4 — 1.5-fold lower, 54.5 nM
- XXXQRPRLSHKGPXPF ({Decanoyl}[AC4Abu][Aeea][Aeea]QRP[NMeArg]LSHKGP[Nle]P[4-Cl-F]{COOH}) [SEQ ID NO: 494] — 3800-fold lower, 0.0221 nM
- XXXQRPRLSHKGPXPF ({hexanoyl}[AC4Abu][Aeea][Aeea]QRP[NMeArg]LSHKGP[Nle]P[4-Cl-F]{COOH}) [SEQ ID NO: 492] — 2200-fold lower, 0.0376 nM
- Palmitoyl-[AC4Abu″][AEEA][AEEA][dQ]RP[NMeR][Cha][αMeS]HKG[Oic][Nle][β3hP][d(β3hF)]-OH (reading uncertain) [SEQ ID NO: 642] — 250-fold lower, 0.332 nM
- Palmitoyl-[AC4Abu″][AEEA][AEEA][dQ]RP[NMeR][Cha]SHKG[Oic][Nle]P[AMEF]-OH (reading uncertain) [SEQ ID NO: 606] — 270-fold lower, 0.307 nM

molecular target: T2, rat APJ receptor (rat, UniProt Q9JHG3 1-377); assay: cell-based or functional assay
T2 sequence (looked up): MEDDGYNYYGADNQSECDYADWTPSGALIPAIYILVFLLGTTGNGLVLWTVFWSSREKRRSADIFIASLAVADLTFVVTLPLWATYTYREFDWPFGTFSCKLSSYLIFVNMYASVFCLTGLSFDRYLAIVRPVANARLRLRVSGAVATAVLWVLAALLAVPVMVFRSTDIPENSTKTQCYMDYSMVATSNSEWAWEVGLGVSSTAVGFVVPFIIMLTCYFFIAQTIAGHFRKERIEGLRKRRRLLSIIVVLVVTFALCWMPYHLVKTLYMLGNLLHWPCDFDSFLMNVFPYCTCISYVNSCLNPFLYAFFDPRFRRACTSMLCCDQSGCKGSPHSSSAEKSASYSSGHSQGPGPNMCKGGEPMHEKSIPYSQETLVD

Point of comparison: B5, “EC50 Rat APJ Receptor (GTPγS assay)” value 1.15 nM. Against it:
- B6 — 7-fold higher, 8.1 nM
- B7 — 3.5-fold higher, 4.01 nM
- B8 — 2.6-fold lower, 0.447 nM
- B9 — 7.3-fold higher, 8.38 nM

molecular target: T3, human APJ receptor (human, UniProt P35414 1-380); assay: cell-based or functional assay
T3 sequence (looked up): T1 sequence (looked up)

Point of comparison: B8, “EC50 Human APJ Receptor (GTPγS assay)” value 0.388 nM. Against it:
- B5 — 1.7-fold lower, 0.235 nM
- B6 — 15-fold higher, 5.99 nM
- B7 — 10-fold higher, 3.92 nM
- B9 — 19-fold higher, 7.52 nM

molecular target: T4, rat APJ receptor (rat, UniProt Q9JHG3 1-377); assay: cell-based or functional assay
T4 sequence (looked up): T2 sequence (looked up)

Point of comparison: B1, “EC50 Rat APJ Receptor” value 0.341 nM. Against it:
- XXXQRPRLSHKGPXPF ({Acetyl-NH}[AC4Abu][Aeea][Aeea]QRP[NMeArg]LSHKGP[Nle]P[4-Cl-F]{COOH}) [SEQ ID NO: 88] — within 1.5-fold, 0.388 nM
- Ac-[hArg]EQ[hArg]P[dR][NMeL]SHKG[Oic][Phe(4-I)]P[dBip]-OH [SEQ ID NO: 76] — 2.9-fold higher, 0.994 nM
- Ac-[hArg]Q[hArg]P[NMeR][Cha]SHKG[Oic][Nle]P[Phe(4-Cl)]-OH [SEQ ID NO: 60] — 13-fold higher, 4.48 nM
- B2 — 210-fold higher, 70.6 nM
- B3 — 160-fold higher, 53.9 nM
- B4 — 250-fold higher, 84.7 nM

— patent US10941182 (Amgen, dated 2021)
